Source: publication PMC6973309
Read-outs that look alike come from different tables or passages of the source.

Experiments:
human CX3CR1 (human) [1] = target: human CX3CR1 (human) (UniProt P49238); assay: flow cytometry on cells
human CX3CR1 (human) [2] = target: human CX3CR1 (human) (UniProt P49238)
human CX3CR1 (human) [3] = target: human CX3CR1 (human) (UniProt P49238); assay: flow cytometry on cells; remark: listed apart in the source

human CX3CR1 (human), sequence (P49238 whole entry): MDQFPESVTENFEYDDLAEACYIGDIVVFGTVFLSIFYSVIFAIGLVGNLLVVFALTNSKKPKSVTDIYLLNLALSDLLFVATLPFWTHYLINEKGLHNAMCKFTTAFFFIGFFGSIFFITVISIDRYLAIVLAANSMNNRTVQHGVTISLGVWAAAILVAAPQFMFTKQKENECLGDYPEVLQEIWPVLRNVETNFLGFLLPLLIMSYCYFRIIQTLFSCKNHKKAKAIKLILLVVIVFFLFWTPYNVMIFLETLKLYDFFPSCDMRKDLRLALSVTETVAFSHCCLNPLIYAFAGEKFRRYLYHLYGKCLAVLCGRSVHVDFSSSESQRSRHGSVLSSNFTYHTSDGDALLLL

Substance	IC50 (human CX3CR1 (human) [1]) [nM]	Chemotaxis IC50 (blocks m3 with m1) (human CX3CR1 (human) [2]) [nM]	Ligand Internalization IC50 (blocks m3 with m1) (human CX3CR1 (human) [2]) [nM]	IC50 (human CX3CR1 (human) [3]) [nM]
BI 655089 (Fc fusion)	0.7	3	0.37	–
BI 655088 (VHH)	0.4	2.7	0.33	1.6
